The target in one experiment is T1, native rVWF 133P1 (human, UniProt P04275 764-2813).
T1 construct: mature; Starting material for PEGylation; multimers of the mature monomer (about 260 kDa on reducing SDS-PAGE); also called unmodified rVWF
Description: SPR (Biacore 3000): native rVWF 133P1 immobilized on CM5 chip, FVIII sample in flow, 1:1 Langmuir model. A general note: SPR reads the build-up and loss of mass on a sensor chip optically.

The target of experiment [1] is activated factor IX (FIXa). Description: cell-based or functional assay.

These results are taken from patent US20080234193A1 (published 2008).

B1: FVIII control (mock preparation, not PEGylated) (other)
chain: ATRRYYLGAVELSWDYMQSDLGELPVDARFPPRVPKSFPFNTSVVYKKTLFVEFTDHLFNIAKPRPPWMGLLGPTIQAEVYDTVVITLKNMASHPVSLHAVGVSYWKASEGAEYDDQTSQREKEDDKVFPGGSHTYVWQVLKENGPMASDPLCLTYSYLSHVDLVKDLNSGLIGALLVCREGSLAKEKTQTLHKFILLFAVFDEGKSWHSETKNSLMQDRDAASARAWPKMHTVNGYVNRSLPGLIGCHRKSVYWHVIGMGTTPEVHSIFLEGHTFLVRNHRQASLEISPITFLTAQTLLMDLGQFLLFCHISSHQHDGMEAYVKVDSCPEEPQLRMKNNEEAEDYDDDLTDSEMDVVRFDDDNSPSFIQIRSVAKKHPKTWVHYIAAEEEDWDYAPLVLAPDDRSYKSQYLNNGPQRIGRKYKKVRFMAYTDETFKTREAIQHESGILGPLLYGEVGDTLLIIFKNQASRPYNIYPHGITDVRPLYSRRLPKGVKHLKDFPILPGEIFKYKWTVTVEDGPTKSDPRCLTRYYSSFVNMERDLASGLIGPLLICYKESVDQRGNQIMSDKRNVILFSVFDENRSWYLTENIQRFLPNPAGVQLEDPEFQASNIMHSINGYVFDSLQLSVCLHEVAYWYILSIGAQTDFLSVFFSGYTFKHKMVYEDTLTLFPFSGETVFMSMENPGLWILGCHNSDFRNRGMTALLKVSSCDKNTGDYYEDSYEDISAYLLSKNNAIEPRSFSQNSRHPSQNPPVLKRHQREITRTTLQSDQEEIDYDDTISVEMKKEDFDIYDEDENQSPRSFQKKTRHYFIAAVERLWDYGMSSSPHVLRNRAQSGSVPQFKKVVFQEFTDGSFTQPLYRGELNEHLGLLGPYIRAEVEDNIMVTFRNQASRPYSFYSSLISYEEDQRQGAEPRKNFVKPNETKTYFWKVQHHMAPTKDEFDCKAWAYFSDVDLEKDVHSGLIGPLLVCHTNTLNPAHGRQVTVQEFALFFTIFDETKSWYFTENMERNCRAPCNIQMEDPTFKENYRFHAINGYIMDTLPGLVMAQDQRIRWYLLSMGSNENIHSIHFSGHVFTVRKKEEYKMALYNLYPGVFETVEMLPSKAGIWRVECLIGEHLHAGMSTLFLVYSNKCQTPLGMASGHIRDFQITASGQYGQWAPKLARLHYSGSINAWSTKEPFSWIKVDLLAPMIIHGIKTQGARQKFSSLYISQFIIMYSLDGKKWQTYRGNSTGTLMVFFGNVDSSGIKHNIFNPPIIARYIRLHPTHYSIRSTLRMELMGCDLNSCSMPLGMESKAISDAQITASSYFTNMFATWSPSKARLHLQGRSNAWRPQVNNPKEWLQVDFQKTMKVTGVTTQGVKSLLTSMYVKEFLISSSQDGHQWTLFFQNGKVKVFQGNQDSFTPVVNSLDPPLLTRYLRIHPQSWVHQIALRMEVLGCEAQDLY
Broadly, the Kd is the constant that tells how readily two partners part at equilibrium. Lower therefore signals higher affinity. In turn, B1 displayed a Kd with native rVWF 133P1 of 0.55 nM. In addition, in experiment [1], the lag phase (min), FIXa-cofactor activity after thrombin activation was 1.13 min; the lag phase (min), FIXa-cofactor activity without thrombin activation worked out at 1.8 min; the maximum FXa (nM), FIXa-cofactor activity after thrombin activation stood at 33.7 nM; the maximum FXa (nM), FIXa-cofactor activity without thrombin activation is 39.6 nM. In experiment [1], the maximum rate (nM FXa/min), FIXa-cofactor activity after thrombin activation was determined as 9.79 nM FXa/min; the maximum rate (nM FXa/min), FIXa-cofactor activity without thrombin activation was determined as 8.8 nM FXa/min; the t1/2 of maximum (min), FIXa-cofactor activity after thrombin activation was found to be 2.85 min; the t1/2 of maximum (min), FIXa-cofactor activity without thrombin activation was found to be 4 min.
